According to patent publication EP4814012A1 (The United Bio-Technology (Hengqin) Co., Ltd., dated 2026):

Columns and labels:
hIL-4Rα.ECD [1] = molecular target: T1, hIL-4Rα.ECD (human, UniProt P24394 26-232); test: SPR (Biacore 8K), antibody captured, hIL-4Rα.ECD analyte, 25°C
T1 construct: extracellular domain; also called hIL-4Rα protein

hIL-4Rα.ECD [2] = molecular target: T1, hIL-4Rα.ECD; test: SPR, antibody captured by anti-human Fc on CM5, hIL-4Rα.ECD analyte
human IL-4Rα on cells [3] = molecular target: T2, human IL-4Rα on cells (human, UniProt P24394 26-825); test: cell-based or functional assay
human IL-4Rα on cells [4] = molecular target: T2, human IL-4Rα on cells; test: cell-based or functional assay; remark: listed apart in the source
human IL-4Rα on cells [5] = molecular target: T2, human IL-4Rα on cells; test: cell-based or functional assay; remark: listed apart in the source
human IL-4Rα on cells [6] = molecular target: T2, human IL-4Rα on cells; test: cell-based or functional assay; remark: listed apart in the source
hIL-4Rα.ECD [7] = molecular target: T1, hIL-4Rα.ECD; test: SPR (Biacore 8K), method same as 1.9, hIL-4Rα.ECD analyte
human IL-4Rα on cells [8] = molecular target: T2, human IL-4Rα on cells; test: cell-based or functional assay; remark: listed apart in the source
human IL-4Rα on cells [9] = molecular target: T2, human IL-4Rα on cells; test: flow cytometry on CHO-K1 cells overexpressing hIL-4Rα
hIL-4Rα.ECD [10] = molecular target: T1, hIL-4Rα.ECD; test: SPR (Biacore 8K), antibody captured by anti-mouse Fc, hIL-4Rα.ECD analyte, 25°C
hTSLP [11] = molecular target: T3, hTSLP (human, UniProt Q969D9 29-159); test: cell-based or functional assay
hTSLP [12] = molecular target: T3, hTSLP; test: SPR (Biacore 8K), antibody captured, hTSLP analyte, 25°C

Binder	Kd (hIL-4Rα.ECD [1])	koff (hIL-4Rα.ECD [1])	kon (hIL-4Rα.ECD [1])	Kd (hIL-4Rα.ECD [2])	koff (hIL-4Rα.ECD [2])	kon (hIL-4Rα.ECD [2])	IC50(pM), hIL-13 Blocking Activity, TF-1 proliferation inhibition assay (human IL-4Rα on cells [3])	IC50 (pM), hIL-13 inhibitory activity, reporter gene assay (HEK-293T.STAT6-GFP cells) (human IL-4Rα on cells [5])	IC50(pM), hIL-4 Blocking Activity by Reporter Gene Assay (human IL-4Rα on cells [6])	IC50 (nM), Cell-based Assay Data (hIL-13), STAT6-GFP reporter gene assay (human IL-4Rα on cells [8])	EC50 (human IL-4Rα on cells [9])	further results
1.34.4-z18 (antibody, human IgG4, V domains shown, Humanized with back-mutations; also called 1.34.4-z18 humanized antibody molecule) VH: QVQLVQSGAEVKKPGASVKVSCKASGYTFTTYYIYWVRQAPGQGLEWMGGSNPSTGGTLFNEKFKTRVTMTVDKSTSTAYMELSSLRSEDTAVYYCTRSGRYAPFTYWGQGTLVTVSS VL: DIQMTQSPSSLSASVGDRVTITCKASQDVSTSVAWYQQKPGKAPKLLIYSASYRFTGVPSRFSGSGSGTDFTFTISSLQPEDFATYYCQQYSTTPFTFGQGTKLEIK	–	–	–	–	–	–	–	–	–	–	–	Kd (hIL-4Rα.ECD [7]): 0.567 nM; koff (hIL-4Rα.ECD [7]): 0.000137 s⁻¹; kon (hIL-4Rα.ECD [7]): 242000 M⁻¹ s⁻¹
1.34.4 (humanized, CDR-grafted) (antibody, V domains shown) VH: QVQLVQSGAEVKKPGASVKVSCKASGYTFTTYYIYWVRQAPGQGLEWMGGSNPSTGGTLFNEKFKTRVTMTRDTSTSTVYMELSSLRSEDTAVYYCARSGRYAPFTYWGQGTLVTVSS VL: DIQMTQSPSSLSASVGDRVTITCKASQDVSTSVAWYQQKPGKAPKLLIYSASYRFTGVPSRFSGSGSGTDFTLTISSLQPEDFATYYCQQYSTTPFTFGQGTKLEIK	–	–	–	–	–	–	–	–	–	–	–	Kd (hIL-4Rα.ECD [7]): 0.512 nM; koff (hIL-4Rα.ECD [7]): 0.0001 s⁻¹; kon (hIL-4Rα.ECD [7]): 196000 M⁻¹ s⁻¹
2.46.13-Murine (antibody, V domains shown, See recheck) VH: DVKLVESGGGLVKLGGSLKLSCAASGFTFSSYYMSWVRQTPEKRLELVAAINSNGGSTYSPDTVKGRFTISRDNAKNTLYLQMSSLKSEDTALYYCARRSLLGNHRDWYFDVWGAGTTVTVSS VL: DIQMTQSPASLSASVGETVTITCRASENIYSYLAWYQQKQGKSPQLLVYNAKTLADGVPSRFSGSGSGTQFSLKINTLQPEDFGSYYCLHHYGTPLTFGAGTKLELK	–	–	–	–	–	–	–	–	–	2.23 nM	0.28 nM	Kd (hIL-4Rα.ECD [10]): 0.306 nM; koff (hIL-4Rα.ECD [10]): 0.000118 s⁻¹; kon (hIL-4Rα.ECD [10]): 385000 M⁻¹ s⁻¹
1.34.4-Murine (antibody, V domains shown, See recheck) VH: QVQLQQPGAELVKPGASMKLSCKASGYTFTTYYIYWVKQRPGQGLEWIGGSNPSTGGTLFNEKFKTKATLTVDKYSSTAYMELSSLTFEDSAVYFCTRSGRYAPFTYWGQGTLVTVSA VL: DIVMTQSHKVLSTSVGDRVIITCKASQDVSTSVAWYQQRPGHSPKLLIYSASYRFTGVPDRFTGSGSGTDFTFTISSVQAEDLAVYNCQQYSTTPFTFGSGTKLEIK	–	–	–	–	–	–	–	–	–	1.38 nM	0.35 nM	Kd (hIL-4Rα.ECD [10]): 0.369 nM; koff (hIL-4Rα.ECD [10]): 0.000133 s⁻¹; kon (hIL-4Rα.ECD [10]): 361000 M⁻¹ s⁻¹

More lines, main results first:

Kd (hIL-4Rα.ECD [1])	koff (hIL-4Rα.ECD [1])	kon (hIL-4Rα.ECD [1])	Kd (hIL-4Rα.ECD [2])	koff (hIL-4Rα.ECD [2])	kon (hIL-4Rα.ECD [2])	IC50(pM), hIL-13 Blocking Activity, TF-1 proliferation inhibition assay (human IL-4Rα on cells [3])	IC50 (pM), hIL-13 inhibitory activity, reporter gene assay (HEK-293T.STAT6-GFP cells) (human IL-4Rα on cells [5])	IC50(pM), hIL-4 Blocking Activity by Reporter Gene Assay (human IL-4Rα on cells [6])	IC50 (nM), Cell-based Assay Data (hIL-13), STAT6-GFP reporter gene assay (human IL-4Rα on cells [8])	EC50 (human IL-4Rα on cells [9])	Binder	further results
0.0489 nM	1.39e-05 s⁻¹	285000 M⁻¹ s⁻¹	0.0437 nM	3.95e-05 s⁻¹	903000 M⁻¹ s⁻¹	125 pM	80 pM	16.4 pM	–	–	m8 (antibody, human IgG4 S228P, kappa, V domains shown, also called m8 molecule; anti-IL-4R antibody m8) VH: QVQLVQSGAEVKKPGASVKVSCKASGYTFTTYYIYWVRQAPGQGLEWMGGSNPSTGGTLDNEKFKTRVTMTVDKSTSTAYMELSSLRSEDTAVYYCTRSGRYAPFTYWGQGTLVTVSS VL: DIQMTQSPSSLSASVGDRVTITCKASQDVSTSVAWYQQKPGKAPKLLIYSASYRFTGVPSRFSGSGSGTDFTFTISSLQPEDFATYYCQHYSTTPFTFGQGTKLEIKR	IC50(pM), hIL-4 inhibitory activity, reporter gene assay (HEK-293T.STAT6-GFP cells) (human IL-4Rα on cells [4]): 210 pM
–	–	–	0.196 nM	0.000112 s⁻¹	568000 M⁻¹ s⁻¹	58.8 pM	–	249 pM	–	–	m27 (antibody, V domains shown, captured by anti-human Fc); also called m27 molecule) VH: QVQLVQSGAEVKKPGASVKVSCKASGYTFTTYYIYWVRQAPGQGLEWMGGSNPSTGGTLENEKFKTRVTMTVDKSTSTAYMELSSLRSEDTAVYYCTRSGRYATFTYWGQGTLVTVSS VL: DIQMTQSPSSLSASVGDRVTITCKASQDVSTSVAWYQQKPGKAPKLLIYSASYRFTGVPSRFSGSGSGTDFTFTISSLQPEDFATYYCVHYSTTPFTFGQGTKLEIK	–
–	–	–	0.133 nM	7.76e-05 s⁻¹	582000 M⁻¹ s⁻¹	66.5 pM	–	286 pM	–	–	m21 (antibody, V domains shown, captured by anti-human Fc); also called m21 molecule) VH: QVQLVQSGAEVKKPGASVKVSCKASGYTFTTYYIYWVRQAPGQGLEWMGGSNPSTGGTLENEKFKTRVTMTVDKSTSTAYMELSSLRSEDTAVYYCTRSGRYAPFTYWGQGTLVTVSS VL: DIQMTQSPSSLSASVGDRVTITCKASQDVSTSVAWYQQKPGKAPKLLIYSASYRFTGVPSRFSGSGSGTDFTFTISSLQPEDFATYYCVHYSTTPFTFGQGTKLEIK	–
0.0616 nM	5.7e-05 s⁻¹	924000 M⁻¹ s⁻¹	0.0379 nM	5.4e-05 s⁻¹	1.43e+06 M⁻¹ s⁻¹	140 pM	41 pM	201 pM	0.81 nM	0.3 nM	Dupilumab (antibody, V domains shown) VH: EVQLVESGGGLEQPGGSLRLSCAGSGFTFRDYAMTWVRQAPGKGLEWVSSISGSGGNTYYADSVKGRFTISRDNSKNTLYLQMNSLRAEDTAVYYCAKDRLSITIRPRYYGLDVWGQGTTVTVSS VL: DIVMTQSPLSLPVTPGEPASISCRSSQSLLYSIGYNYLDWYLQKSGQSPQLLIYLGSNRASGVPDRFSGSGSGTDFTLKISRVEAEDVGFYYCMQALQTPYTFGQGTKLEIKR	–
0.0598 nM	4.35e-05 s⁻¹	727000 M⁻¹ s⁻¹	–	–	–	–	133 pM	–	–	–	MMT (bispecific antibody, human IgG4 S228P, kappa, the junction should be checked against them; also called MMT bispecific antibody; MMT molecule) heavy: not shown light: DIQMTQSPSSLSASVGDRVTITCKASQDVSTSVAWYQQKPGKAPKLLIYSASYRFTGVPSRFSGSGSGTDFTFTISSLQPEDFATYYCQHYSTTPFTFGQGTKLEIKRTVAAPSVFIFPPSDEQLKSGTASVVCLLNNFYPREAKVQWKVDNALQSGNSQESVTEQDSKDSTYSLSSTLTLSKADYEKHKVYACEVTHQGLSSPVTKSFNRGEC	IC50 (nM), hTSLP inhibitory activity, reporter gene assay (HEK-293T-hTSLPR-IL7Ra-STAT5-Luciferase cells) (hTSLP [11]): 0.3 nM; Kd (hTSLP [12]): 0.0188 nM; koff (hTSLP [12]): 5.88e-05 s⁻¹; kon (hTSLP [12]): 3.14e+06 M⁻¹ s⁻¹
0.0659 nM	3.48e-05 s⁻¹	528000 M⁻¹ s⁻¹	–	–	–	–	66.5 pM	–	–	–	MTM (bispecific antibody, human IgG2, lambda, the junction should be checked against them; also called MTM bispecific antibody; MTM molecule) heavy: QMQLVESGGGVVQPGRSLRLSCAASGFTFRTYGMHWVRQAPGKGLEWVAVIWYDGSNKHYADSVKGRFTITRDNSKNTLNLQMNSLRAEDTAVYYCARAPQWELVHEAFDIWGQGTMVTVSSASTKGPSVFPLAPCSRSTSESTAALGCLVKDYFPEPVTVSWNSGALTSGVHTFPAVLQSSGLYSLSSVVTVPSSNFGTQTYTCNVDHKPSNTKVDKTVERKCCVECPPCPAPPVAGPSVFLFPPKPKDTLMISRTPEVTCVVVDVSHEDPEVQFNWYVDGVEVHNAKTKPREEQFNSTFRVVSVLTVVHQDWLNGKEYKCKVSNKGLPAPIEKTISKTKGQPREPQVYTLPPSREEMTKNQVSLTCLVKGFYPSDIAVEWESNGQPENNYKTTPPMLDSDGSFFLYSKLTVDKSRWQQGNVFSCSVMHEALHNHYTQKSLSLSPGKGGGGSGGGGSQVQLVQSGAEVKKPGASVKVSCKASGYTFTTYYIYWVRQAPGQCLEWMGGSNPSTGGTLDNEKFKTRVTMTVDKSTSTAYMELSSLRSEDTAVYYCTRSGRYAPFTYWGCGTLVTVSSGGGGSGGGGSGGGGSGGGGSDIQMTQSPSSLSASVGDRVTITCKASQDVSTSVAWYQQKPGKAPKLLIYSASYRFTGVPSRFSGSGSGTDFTFTISSLQPEDFATYYCQHYSTTPFTFGCGTKLEIK light: SYVLTQPPSVSVAPGQTARITCGGNNLGSKSVHWYQQKPGQAPVLVVYDDSDRPSWIPERFSGSNSGNTATLTISRGEAGDEADYYCQVWDSSSDHVVFGGGTKLTVLGQPKAAPSVTLFPPSSEELQANKATLVCLISDFYPGAVTVAWKADSSPVKAGVETTTPSKQSNNKYAASSYLSLTPEQWKSHRSYSCQVTHEGSTVEKTVAPTECS	IC50 (nM), hTSLP inhibitory activity, reporter gene assay (HEK-293T-hTSLPR-IL7Ra-STAT5-Luciferase cells) (hTSLP [11]): 0.14 nM; IC50(pM), hIL-4 inhibitory activity, reporter gene assay (HEK-293T.STAT6-GFP cells) (human IL-4Rα on cells [4]): 170 pM; Kd (hTSLP [12]): 0.00296 nM; koff (hTSLP [12]): 3.5e-05 s⁻¹; kon (hTSLP [12]): 1.18e+07 M⁻¹ s⁻¹
